This is an account of results in patent US7507799 (CORNELL RESEARCH FOUNDATION, dated 2009).

A word on the IC50: it is the concentration at which inhibition is half-maximal. Read a low IC50 as greater potency in that assay.

The target in experiment [1] is p75 on vascular smooth muscle cell line (p75Ts-Tag-SMC). Put plainly: cell-based or functional assay.
Experiment [2] concerns the target T1, p75NTR on A875 cells (UniProt P08138 29-427).
T1 construct: whole, on cells; also called p75 receptor; cells expressing only p75
T1 sequence (looked up): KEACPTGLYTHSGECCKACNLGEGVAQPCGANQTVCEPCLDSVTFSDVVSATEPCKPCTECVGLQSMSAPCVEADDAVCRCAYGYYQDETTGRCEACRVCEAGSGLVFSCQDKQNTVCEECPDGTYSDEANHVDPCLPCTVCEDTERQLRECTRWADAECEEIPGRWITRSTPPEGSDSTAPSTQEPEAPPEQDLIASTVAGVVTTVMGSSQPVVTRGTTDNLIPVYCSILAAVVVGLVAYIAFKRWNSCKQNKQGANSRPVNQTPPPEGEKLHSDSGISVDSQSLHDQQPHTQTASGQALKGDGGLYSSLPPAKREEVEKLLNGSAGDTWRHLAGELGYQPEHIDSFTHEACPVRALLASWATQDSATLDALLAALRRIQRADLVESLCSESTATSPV
Put plainly: whole-cell competition against 1 nM 125I-NGF on cells expressing only p75 (A875 cells). As for the experimental part:
(§1) FIG. 8: Binding analysis of mature and cleavage-resistant pro-NGF to TrkA or p75^NTR receptors. […] Competition analysis of equilibrium binding was performed using a whole-cell assay. Cells were incubated with 1 nM radioiodinated NGF in the presence or absence of unlabeled mature NGF or unlabeled proNGF from 0.005 to 7 nM concentration for 1 hour at […] Nonspecific binding measured in parallel incubation with 500-fold excess mature NGF was less than 10% of total binding; all results were corrected for this non-specific binding. Each point represents the mean±standard deviation of quadruplicate determinations. Squares, commercial mature NGF; open circles, cleavage resistant pro-NGF.
(§2) The cleavage resistant proform of NGF binds with higher affinity than the cleaved mature form of NGF to the p75 receptor. Competition binding assays were performed to determine the affinity of interaction of the uncleaved proform to p75 or to trk A. Commercially purchased, predominantly mature NGF (Enzo Products for Science, Farmingdale, N.Y.) was radiolabeled and incubated with cells expressing only p75, in the presence or absence of increasing concentrations of either unlabeled cleaved NGF, or of unlabeled cleavage resistant pro-NGF. […] Thus, the cleavage resistant pro-NGF proform binds less effectively to trk A.

In experiment [3] the target is T1, p75NTR on A875 cells. Put plainly: ratio of IC50s, whole-cell competition against 125I-NGF on cells expressing only p75. The protocol: as §1, §2
A further experiment addresses TrkA on 293 cells. Put plainly: whole-cell competition against 1 nM 125I-NGF on 293 cells expressing only trk A. As for the experimental part:
as §1, §2

Some results are limits rather than exact numbers.

Sequence of TrkA on 293 cells (chain, as listed by the source): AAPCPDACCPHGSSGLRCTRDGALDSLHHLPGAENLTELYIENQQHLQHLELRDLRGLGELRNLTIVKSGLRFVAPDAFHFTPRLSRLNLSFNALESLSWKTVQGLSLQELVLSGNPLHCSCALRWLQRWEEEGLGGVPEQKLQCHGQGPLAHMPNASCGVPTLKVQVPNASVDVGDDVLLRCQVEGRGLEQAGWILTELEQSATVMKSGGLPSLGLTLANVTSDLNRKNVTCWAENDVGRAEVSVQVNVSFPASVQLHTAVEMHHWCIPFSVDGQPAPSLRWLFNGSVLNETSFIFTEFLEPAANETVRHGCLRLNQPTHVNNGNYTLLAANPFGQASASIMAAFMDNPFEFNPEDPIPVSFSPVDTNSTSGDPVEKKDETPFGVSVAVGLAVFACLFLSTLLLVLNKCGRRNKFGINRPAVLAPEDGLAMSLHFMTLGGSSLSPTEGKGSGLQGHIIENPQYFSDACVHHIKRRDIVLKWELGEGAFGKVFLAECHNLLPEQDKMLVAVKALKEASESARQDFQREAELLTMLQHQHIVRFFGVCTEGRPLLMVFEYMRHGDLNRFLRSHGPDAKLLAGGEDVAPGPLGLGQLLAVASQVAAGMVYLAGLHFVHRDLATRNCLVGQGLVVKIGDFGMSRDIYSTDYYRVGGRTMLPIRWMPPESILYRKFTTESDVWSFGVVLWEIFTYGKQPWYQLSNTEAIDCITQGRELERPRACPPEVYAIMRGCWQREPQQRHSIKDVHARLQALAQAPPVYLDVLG

B1: His-tagged cleavage resistant pro-NGF (point mutant, K-R cleavage site at 120,121 mutated to A-A) (ligand)
chain: EPYTDSNVPEGDSVPEAHWTKLQHSLDTALRRARSAPTAPIAARVTGQTRNITVDPRLFKKRRLHSPRVLFSTQPPPTSSDTLDLDFQAHGTIPFNRTHRSAASSTHPVFHMGEFSVCDSVSVWVGDKTTATDIKGKEVTVLAEVNINNSVFRQYFFETKCRASNPVESGCRGIDSKHWNSYCTTTHTFVKALTTDEKQAAWRFIRIDTACVCVLSRKATRRG
notes: also called cleavage resistant proform of NGF; uncleaved proform; not shown: His tag at the carboxy-terminus
For B1, the “induction of apoptosis relative to mature NGF” value in experiment [1] was around 10 fold. The IC50 is 0.2 nM in the experiment with p75NTR on A875 cells [2] and above 5 nM with TrkA on 293 cells. Also, the “times as effective in binding p75 as cleaved NGF” value in the experiment with p75NTR on A875 cells [3] is around 5 fold.
